This note sets out measurements from paper doi:10.1101/2020.04.16.045419 (bioRxiv, 2020).

First the molecules themselves.
B1: Sb#2 (VHH)
VHH: QVQLVESGGGLVQAGGSLRLSCATSGFPVYQANMHWYRQAPGKEREWVAAIQSYGDGTHYADSVKGRFTISRDNAKNTVYLQMNSLKPEDTAVYYCRAVYVGMHYFGQGTQVTVS
B2: Sb#3 (VHH)
VHH: QVQLVESGGGLVQAGGSLRLSCAASGFPVNYKTMWWYRQAPGKEREWVAAIWSYGHTTHYADSVKGRFTISRDNAKNTVYLQMNSLKPEDTAVYYCVVWVGHNYEGQGTQVTVS
B3: Sb#6 (VHH)
VHH: QVQLVESGGGLVQAGGSLRLSCAASGFPVEQGRMYWYRQAPGKEREWVAAIISHGTVTVYADSVKGRFTISRDNAKNTVYLQMNSLKPEDTAVYYCYVYVGAQYWGQGTQVTVS
B4: Sb#12 (VHH)
VHH: QVQLVESGGGLVQAGGSLRLSCAASGFPVKASRMYWYRQAPGKEREWVAAIQSFGEVTWYADSVKGRFTISRDNAKNTVYLQMNSLKPEDTAVYYCYVWVGQEYWGQGTQVTVS
B5: Sb#30 (VHH)
VHH: QVQLVESGGGLVQAGGSLRLSCAASGFPVTMAWMWWYRQAPGKEREWVAAIRSEGVRTYYADSVKGRFTISRDNAKNTVYLQMNSLKPEDTAVYYCNVKDYGQAHAYYDYWGQGTQVTVS
B6: Sb#11 (VHH)
VHH: QVQLVESGGGLVQAGGSLRLSCAASGFPVETENMHWYRQAPGKEREWVAAIYSHGMWTAYADSVKGRFTISRDNTKNTVYLQMNSLKPEDTAVYYCEVEVGKWYFGQGTQVTVS
B7: Sb#25 (VHH)
VHH: QVQLVESGGGLVQAGGSLRLSCAASGFPVHAWEMAWYRQAPGKEREWVAAIRSFGSSTHYADSVKGRFTISRDNAKNTVYLQMNSLKPEDTAVYYCNVKDFGTHHYAYDYWGQGTQVTVS
B8: Sb#36 (VHH)
VHH: QVQLVESGGGLVQAGGSLRLSCAASGFPEIAWEMAWYRQAPGKEREWVAAIRSFGERTLYADSVKGRFTISRDNAKNTVYLQMNSLKPEDTAVYYCNVKDFGWQHQEYDYWGQGTQVTVS
B9: Sb#27 (VHH)
VHH: QVQLVESGGGLVQAGGSLRLSCAASGFPVYNTWMEWYRQAPGKEREWVAAITSHGYKTYYADSVKGRFTISRDNAKNTVYLQMNSLKPEDTAVYYCNVKDEGDMFTAYDYWGQGTQVTVS
B10: Sb#33 (VHH)
VHH: QVQLVESGGGLVQAGGSLRLSCAASGFPVAHAWMEWYRQAPGKEREWVAAITSYGYKTYYADSVKGRFTISRDNAKNTVYLQMNSLKPEDTAVYYCNVKDTGTYRFYYDYWGQGTQVTVS
B11: Sb#35 (VHH)
VHH: QVQLVESGGGLVQAGGSLRLSCAASGFPVEHYWMEWYRQAPGKEREWVAAITSFGYRTYYADSVKGRFTISRDNAKNTVYLQMNSLKPEDTAVYYCNVKDWGFASHAYDYWGQGIQVTVS
B12: Sb#21 (VHH)
VHH: QVQLVESGGGLVQAGGSLRLSCAASGFPVKHHWMFWYRQAPGKEREWVAAIKSYGYGTEYADSVKGRFTISRDNAKNTVYLQMNSLKPEDTAVYYCFVGVGTHYAGQGTQVTVS
B13: Sb#5 (VHH)
VHH: QVQLVESGGGLVQAGGSLRLSCAASGFPVFSGHMHWYRQAPGKEREWVAAILSNGDSTHYADSVKGRFTISRDNAKNTVYLQMNSLKPEDTAVYYCRVHVGAHYFGQGTQVTVS
B14: Sb#39 (VHH)
VHH: QVQLVESGGGLVQAGGSLRLSCAASGFPVFHVWMEWYRQAPGKEREWVAAIDSAGWHTYYADSVKGRFTISRDNAKNTVYLQMNSLKPEDTAVYYCNVKDAGNTTSAYDYWGQGTQVTVS
B15: Sb#26 (VHH)
VHH: QVQLVESGGGLVQAGGSLRLSCAASGFPVNTWWMHWYRQAPGKEREWVAAITSWGFRTYYADSVKGRFTISRDNAKNTVYLQMNSLKPEDTAVYYCNVKDKGMAVQWYDYWGQGTQVTVS
B16: Sb#40 (VHH)
VHH: QVQLVESGGGLVQAGGSLRLSCAASGFPVYYNWMEWYRQAPGKEREWVAAIHSNGDETFYADSVKGRFTISRDNAKNTVYLQMNSLKPEDTAVYYCNVKDIDAEAYAYDYWGQGTQVTVS
B17: Sb#20 (VHH)
VHH: QVQLVESGGGLVQAGGSLRLSCAASGFPVEQREMEWYRQAPGKEREWVAAIDSNGNYTFYADSVKGRFTISRDNAKNTVYLQMNSLKPEDTAVYYCYVYVGKSYIGQGTQVTVS
B18: Sb#23 (VHH)
VHH: QVQLVESGGGLVQAGGSLRLSCAASGFPVYAAEMEWYRQAPGKEREWVAAISSQGTITYYADSVKGRFTISRDNAKNTVYLQMNSLKPEDTAVYYCFVYVGKSYIGQGTQVSVS
B19: Sb#13 (VHH)
VHH: QVQLVESGGGLVQAGGSLRLSCAASGFPVYASNMHWYRQAPGKEREWVAAIESQGYMTAYADSVKGRFTISRDNAKNTVYLQMNSLKPEDTAVYYCWVIVGEYYVGQGTQVTVS
B20: Sb#46 (VHH)
VHH: QVQLVESGGGLVQAGGSLRLSCAASGFPVDNGYMHWYRQAPGKEREWVAAIDSYGWHTIYADSVKGRFTISRDNAKNTVYLQMNSLKPEDTAVYYCNVKDKGQMRAAYDYWGQGTQVTVS
B21: Sb#9 (VHH)
VHH: QVQLVESGGGLVQAGGSLRLSCAASGFPVSSSTMTWYRQAPGKEREWVAAINSYGWETHYADSVKGRFTISRDNAKNTVYLQMNSLKPEDTAVYYCYVYVGGSYIGQGTQVTVS
B22: Sb#19 (VHH)
VHH: QVQLVESGGGLVQAGGSLRLSCAASGFPVNSHEMTWYRQAPGKEREWVAAIQSTGTVTEYADSVKGRFTISRDNAKNTVYLQMNSLKPEDTAVYYCYVYVGSSYLGQGTQVTVS
B23: Sb#31 (VHH)
VHH: QVQLVESGGGLVQAGGSLRLSCAASGFPVNSHFMEWYRQAPGKEREWVAAIQHSSGFHTYYADSVKGRFTISRDNAKNTVYLQMNSLKPEDTAVYYCNVKDTGTTEDYDYWGQGTQVTVS
B24: Sb#28 (VHH)
VHH: QVQLVESGGGLVQAGGSLRLSCAASGFPVYHSTMFWYRQAPGKEREWVAAIYSSGQHTYYADSVKGRFTISRDNAKNTVYLQMNSLKPEDTAVYYCNVKDSGQWRQEYDYWGQGTQVTVS
B25: Sb#37 (VHH)
VHH: QVQLVESGGGLVQAGGSLRLSCAASGFPVYHAYMEWYRQAPGKEREWVAAIYSNGEHTYYADSVKGRFTISRDNAKNTVYLQMNSLKPEDTAVYYCNVKDSGSFNQAYDYWGQGTQVTVS
B26: Sb#29 (VHH)
VHH: QVQLVESGGGLVQAGGSLRLSCAASGFPVEHEMAWYRQAPGKEREWVAAIRSMGRKTLYADSVKGRFTISRDNAKNTVYLQMNSLKPEDTAVYYCNVKDFGYTWHEYDYWGQGTQVTVS
B27: Sb#32 (VHH)
VHH: QVQLDESGGGLVQAGGSLRLSCAASGFPVYHAWMEWYRQAPGKEREWVAAITSSGRHTYYADSVKGRFTISRDNAKNTVYLQMNSLKPEDTAVYYCNVKDAGRVYNSYDYWGQGTQVTVS
B28: Sb#1 (VHH)
VHH: QVQLVESGGGLVQAGGSLRLSCAASGFPVRKANMHWYRQAPGKEREWVAAIMSKGEQTVYADSVEGRFTISRDNAKNTVYLQMNSLKPEDTAVYYCRVFVGWHYFGQGTQVTVS
B29: Sb#8 (VHH)
VHH: QVQLVESGGGLVQAGGSLRLSCAASGFPVNAGNMHWYRQAPGKEREWVAAIQSYGRTTYYADSVKGRFTISRDNAKNTVYLQMNSLKPEDTAVYYCRVFVGMHYFGQGTQVTVS
B30: Sb#17 (VHH)
VHH: QVQLVESGGGLVQAGGSLRLSCAASGFPVAGRNMWWYRQAPGKEREWVAAIYSSGTYTEYADSVKGRFTISRDNAKNTVYLQMNSLKPEDTAVYYCHVWVGSLYKGQGTQVTVS
B31: Sb#10 (VHH)
VHH: QVQLVESGGGLVQAGGSLRLSCAASGFPVQSHYMRWYRQAPGKEREWVAAIESTGHHTAYADSVKGRFTISRDNAKNTVYLQMNSLKPEDTAVYYCTVYVGYEYHGQGTQVTVS
B32: Sb#38 (VHH)
VHH: QVQLVESGGGLVQAGGSLRLSCAASGFPVEWSHMHWYRQAPGKEREWVAAIVSKGGYTLYADSVKGRFTISRDNAKNTVYLQMNSLKPEDTAVYYCNVKDYGVHFKRYDYWGQGTQVTVI

This experiment concerns the target SARS-CoV-2 RBD construct consisting of residues Pro330-Gly526 fused to Venus YFP (RBD-vYFP) (SARS-CoV-2, UniProt P0DTC2).
Take B1: the binding result is “binds”.
Consider B2, for which the binding result is recorded as “binds”.
Regarding B3, the binding result is recorded as “binds”.
In the case of B4, the binding result is given as “binds”.
The same measure for B5: “binds”; for B6: “binds”.
As for B7, the entry is “binds”; as for B8, “binds”; as for B9, “binds”.
As for B10, the entry is “binds”.
Take B11: the binding result is recorded as “binds”.
As for B12, the entry is “binds”; as for B13, “binds”; as for B14, “binds”.
The same measure for B15: “binds”; for B16: “binds”; for B17: “binds”.
The same measure for B18: “binds”; for B19: “binds”; for B20: “binds”.
As for B21, the binding result is on record as “binds”.
Take B22: the binding result is recorded as “binds”.
As for B23, the entry is “binds”; as for B24, “binds”; as for B25, “binds”.
The same measure for B26: “binds”; for B27: “binds”.
The same measure for B28: “binds”; for B29: “binds”; for B30: “binds”.
Take B31: the binding result was “binds”.
As for B32, the entry is “binds”.
